From US20190367592A1 (AC IMMUNE, published 2019)
Where a chain is given by its changes, count along the chain named. “And” between values parts separate entries of the source, which are not always exact repeats. Equal values may be shown once.

B1: hu125B11 HC1 + hu113F5-F7 LC3 (antibody, V domains shown)
VH: EVQLVESGGGLVQPGGSLRLSCAASRFIFSNYWMNWVRQAPGKGLEWVAQIRLKSDNYATHYAESVKGRFTISRDDSKNTVYLQMNSLRAEDTAVYYCTGGTTYWGQGTLVTVSS
VL: DIQMTQSPSSLSASVGDRVTITCKASQNVGTAVAWYQQKPGKSPKLLIYSASRRFSGVPSRFSGSGSGTDFTLTISSLQPEDFATYYCQQFSTYPYTFGQGTKVEIK
B2: hu125B11 HC2 + hu113F5-F7 LC2 (antibody, V domains shown)
VH: B1 VH with D76N
VL: B1 VL with S43A, Y87F
B3: hu125B11 HC1 + 125B11 LC3 (antibody, V domains shown)
VH: B1 VH
VL: B1 VL with R53I, F55Y, S56T, S92R
B4: hu125B11 HC3 + 125B11 LC2 (antibody, V domains shown)
VH: B1 VH with V81L
VL: B1 VL with S43A, R53I, F55Y, S56T, Y87F, S92R
B5: hu125B11 HC2 + 125B11 LC3 (antibody, V domains shown)
VH: B1 VH with D76N
VL: B1 VL with R53I, F55Y, S56T, S92R
B6: hu125B11 HC4 + hu113F5-F7 LC1 (antibody, V domains shown)
VH: B1 VH with D76N, V81L
VL: B1 VL with Y87F
B7: hu125B11 HC3 + hu113F5-F7 LC1 (antibody, V domains shown)
VH: B1 VH with V81L
VL: B1 VL with Y87F
B8: hu125B11 HC4 + 125B11 LC1 (antibody, V domains shown)
VH: B1 VH with D76N, V81L
VL: B1 VL with R53I, F55Y, S56T, Y87F, S92R
B9: hu125B11 HC2 + hu113F5-F7 LC4 (antibody, V domains shown)
VH: B1 VH with D76N
VL: B1 VL with S43A
B10: hu125B11 HC3 + hu113F5-F7 LC3 (antibody, V domains shown)
VH: B1 VH with V81L
VL: B1 VL
B11: hu125B11 HC1 + hu113F5-F7 LC1 (antibody, V domains shown)
VH: B1 VH
VL: B1 VL with Y87F
B12: hu125B11 HC1 + 125B11 LC2 (antibody, V domains shown)
VH: B1 VH
VL: B1 VL with S43A, R53I, F55Y, S56T, Y87F, S92R
B13: hu125B11 HC3 + hu113F5-F7 LC4 (antibody, V domains shown)
VH: B1 VH with V81L
VL: B1 VL with S43A
B14: hu125B11 HC4 + hu113F5-F7 LC4 (antibody, V domains shown)
VH: B1 VH with D76N, V81L
VL: B1 VL with S43A
B15: hu125B11 HC1 + 125B11 LC1 (antibody, V domains shown)
VH: B1 VH
VL: B1 VL with R53I, F55Y, S56T, Y87F, S92R
B16: hu125B11 HC2 + 125B11 LC2 (antibody, V domains shown)
VH: B1 VH with D76N
VL: B1 VL with S43A, R53I, F55Y, S56T, Y87F, S92R
B17: hu125B11 HC3 + hu113F5-F7 LC2 (antibody, V domains shown)
VH: B1 VH with V81L
VL: B1 VL with S43A, Y87F
B18: hu125B11 HC1 + hu113F5-F7 LC2 (antibody, V domains shown)
VH: B1 VH
VL: B1 VL with S43A, Y87F
B19: hu125B11 HC2 + hu113F5-F7 LC3 (antibody, V domains shown)
VH: B1 VH with D76N
VL: B1 VL
B20: hu125B11 HC4 + hu113F5-F7 LC2 (antibody, V domains shown)
VH: B1 VH with D76N, V81L
VL: B1 VL with S43A, Y87F
B21: hu125B11 HC4 + 125B11 LC3 (antibody, V domains shown)
VH: B1 VH with D76N, V81L
VL: B1 VL with R53I, F55Y, S56T, S92R
B22: hu125B11 HC3 + 125B11 LC3 (antibody, V domains shown)
VH: B1 VH with V81L
VL: B1 VL with R53I, F55Y, S56T, S92R
B23: hu125B11 HC2 + 125B11 LC1 (antibody, V domains shown)
VH: B1 VH with D76N
VL: B1 VL with R53I, F55Y, S56T, Y87F, S92R
B24: hu125B11 HC1 + hu113F5-F7 LC4 (antibody, V domains shown)
VH: B1 VH
VL: B1 VL with S43A
B25: hu125B11 HC3 + 125B11 LC4 (antibody, V domains shown)
VH: B1 VH with V81L
VL: B1 VL with S43A, R53I, F55Y, S56T, S92R
B26: hu125B11 HC5 + 125B11 LC1 (antibody, V domains shown)
VH: B1 VH with W33Y
VL: B1 VL with R53I, F55Y, S56T, Y87F, S92R
B27: hu125B11 HC1 + 125B11 LC4 (antibody, V domains shown)
VH: B1 VH
VL: B1 VL with S43A, R53I, F55Y, S56T, S92R
B28: hu125B11 HC2 + hu113F5-F7 LC1 (antibody, V domains shown)
VH: B1 VH with D76N
VL: B1 VL with Y87F
B29: hu125B11 HC2 + 125B11 LC4 (antibody, V domains shown)
VH: B1 VH with D76N
VL: B1 VL with S43A, R53I, F55Y, S56T, S92R
B30: hu125B11 HC4 + hu113F5-F7 LC3 (antibody, V domains shown)
VH: B1 VH with D76N, V81L
VL: B1 VL
B31: 66F5-A1 (antibody, mouse IgG2a, V domains shown)
VH: QVQLQQSGAELVRPGASVTLSCKASGYTFIDYEMNWVKQTPVHGLEWIGAIDPENGGTAYNQKFKGKAIVTADKSSSTAYMELRSLTSEDSAVYYCSGPHFDYWGQGTTLTVSS
VL: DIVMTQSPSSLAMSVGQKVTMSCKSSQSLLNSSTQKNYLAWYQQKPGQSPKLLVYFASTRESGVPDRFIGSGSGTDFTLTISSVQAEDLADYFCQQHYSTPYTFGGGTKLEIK
B32: 26C1 (antibody, mouse IgG2a, V domains shown)
VH: EVHLQQSGAELVRSGASVKLSCTASGFNIKDYYMYWVKQRPEQGLEWIGWIDPENGDTEYFPKFQGKATMTADTSSKTAYLQLSSLTSEDTAVYYCNAWRARATNSALDYWGQGTSVTVSS
VL: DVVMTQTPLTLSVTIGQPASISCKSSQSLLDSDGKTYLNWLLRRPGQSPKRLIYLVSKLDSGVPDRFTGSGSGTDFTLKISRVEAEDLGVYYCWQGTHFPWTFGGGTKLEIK
notes: recombinant murine IgG2a/kappa; label without subclone
B33: 30G1-B2 (antibody, mouse IgG2a, V domains shown)
VH: QVQLQQSGAELVRPGASVTLSCKASGYTFTDYEMYWVKQTPVHGLEWIGAIDPETGDTAYNQKFKGKATLTADKSSNTAYMELRSLTSEDSAVYYCIRQYGNWFPYWGQGTLVTVSA
VL: DVVMTQTPLSLPVSLGDQASISCRSSQSLVHANGNTYLHWFLQKPGLSPKLLIYKVSNRFSGVPDRFSGGGSGTDFTLKITRLEAEDLGVYFCSQSTHVPFTFGSGTKLEIK
B34: 11E10-B8 (antibody, mouse IgG2a, V domains shown)
VH: EVQLVESGGDLVKPGGSLKLSCAASGFTFRSYGMSWVRQTPDKRLEWVATISGGGSYTYYPDSVKGRFTISRDNAKNTLYLQMSSLKSEDTAMYYCAVSYDGAMDYWGQGTSVTVSS
VL: DVLMTQTPLSLPVSLGDQASISCRSSQSIVHSNGNTYLEWYLQKPGQSPKLLIYKVSNRFSGVPDRFSGSGSGTDFTLKISRVEAEDLGLYYCFQGSHVPWTFGGGTKLEIK

Each binder was assayed against T1, recombinant human Tau monomer, 2N4R isoform (amino acids 2-441) (human, UniProt P10636-8 2-441) (assay: SPR screen, hIgG captured, Tau monomer analyte).
T1 construct: range 2-441; N-terminal His-tag removed with TEV protease; also called monomeric Tau
Description: Antibody 125B11-H3 was humanized onto VH3 and Vκ1 consensus frameworks. The heavy chain graft included murine residues at position 78 (Kabat numbering system). The Vκ1 graft included murine residues in framework positions 43 and 87. The light chain of 113F5-F7 was also humanized onto the Vκ1 framework, with additional murine residues at framework positions 43 and 87. Humanized variant heavy chains (125B11) and light chains (125B11 and 113F5-F7) were co-transfected in multiple combinations and purified in 96-well format as described above. Humanized variants were then screened for affinity for human Tau monomer using the Biacore human IgG capture kit, a Series S CM5 chip and a Biacore T200 instrument. Antibodies were diluted to 2 μg/ml and captured for 15 seconds at 10 μl/min. Association and dissociation of 0, 100 and 500 nM human Tau monomer in HBSP was monitored for 180s and 300s respectively at a flow rate of 40 μl/min. A 1:1 binding model was applied to the results (Table 9).

T1 sequence (P10636 other isoform, or with tags, fused parts or gaps limits assumed): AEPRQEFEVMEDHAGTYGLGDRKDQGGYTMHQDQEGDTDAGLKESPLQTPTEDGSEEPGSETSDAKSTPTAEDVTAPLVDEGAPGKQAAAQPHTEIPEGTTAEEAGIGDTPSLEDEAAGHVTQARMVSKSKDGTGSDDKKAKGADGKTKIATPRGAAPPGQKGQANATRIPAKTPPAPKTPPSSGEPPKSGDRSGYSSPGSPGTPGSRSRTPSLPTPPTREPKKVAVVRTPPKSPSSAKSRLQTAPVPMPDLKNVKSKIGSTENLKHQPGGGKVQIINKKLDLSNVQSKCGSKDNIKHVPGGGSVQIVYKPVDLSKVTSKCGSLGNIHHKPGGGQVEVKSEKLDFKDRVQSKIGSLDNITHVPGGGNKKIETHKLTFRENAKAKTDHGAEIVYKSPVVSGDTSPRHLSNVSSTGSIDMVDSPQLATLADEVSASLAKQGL

Row | Binder | Kd
1 | B1 | 61 nM
2 | B2 | 68 nM
3 | B3 | 21 nM
4 | B4 | 19 nM
5 | B5 | 23 nM
6 | B6 | 44 nM
7 | B7 | 54 nM
8 | B8 | 15 nM
9 | B9 | 77 nM
10 | B10 | 54 nM
11 | B11 | 57 nM
12 | B12 | 20 nM
13 | B13 | 65 nM
14 | B14 | 51 nM
15 | B15 | 16 nM and 19 nM
16 | B16 | 20 nM
17 | B17 | 55 nM
18 | B18 | 67 nM
19 | B19 | 64 nM
20 | B20 | 47 nM
21 | B21 | 15 nM
22 | B22 | 20 nM
23 | B23 | 18 nM
24 | B24 | 71 nM
25 | B25 | 20 nM
26 | B26 | 85 nM
27 | B27 | 23 nM
28 | B28 | 61 nM
29 | B29 | 22 nM
30 | B30 | 47 nM

Each binder was assayed against T1, recombinant human Tau monomer, 2N4R … (assay: SPR, mIgG2a captured, Tau monomer analyte, 1:1 fit).
Description: Antibody heavy and light chains were constructed via gene synthesis and subcloning of the resulting DNA into murine IgG2a (heavy chain) and murine kappa (light chain) mammalian expression vectors. Antibodies were expressed in CHO or 293T cells by transient co-transfection of the heavy chain and light chain plasmids and were purified with affinity resin MabSelectSure (GE Healthcare Life Sciences). Purified recombinant antibodies were screened for binding to Tau monomer protein on a Biacore T200 surface plasmon resonance instrument using a mouse IgG capture kit and a Series S CM5 chip. Antibodies in mIgG2a format diluted in 10 mM HEPES pH7.4, 150 mM NaCl, 0.05% Tween 20 (running buffer, HBSP) were captured for 30 or 45 seconds at a concentration of 1 μg/ml (antibodies 26C1, 94B2-C1, 52F6-F11.v1, 52F6-F11.v2, 11E10-B8, 55E7-F11, 125B1-H3, 123E9-A1, 30G1-B2, 66F5-A1, 89F4-A1, 93A8-D2 and 126F11-G11) or for 70 or 150 seconds at a concentration of 0.1 μg/ml (antibodies 19H6-F7, 3A4-H4, 54C1-H11 and 37D3-H9) using a flow rate of 10 μl/min. […] Association and dissociation times were monitored for 180-480 seconds and for 300-600 seconds respectively. Antibody 37D3-H9 was selected for further analysis due to the high affinity (Table 6) and the absence of NXS/T glycosylation motifs in the CDRs.

Row | Binder | Kd | koff | kon
31 | B31 | 105 nM | 0.008 s⁻¹ | 80000 M⁻¹ s⁻¹
32 | B32 | 17 nM | 0.0007 s⁻¹ | 40000 M⁻¹ s⁻¹
33 | B33 | 20 nM | 0.008 s⁻¹ | 400000 M⁻¹ s⁻¹
34 | B34 | 108 nM | 0.02 s⁻¹ | 200000 M⁻¹ s⁻¹
